# Experimental data taken from patent US20260152559A1 (Janssen / Centocor, published 2026).
# Experiments:
# [1] = biological target: human CD3 on cells (Jurkat cells, primary human T cells) (human) (UniProt P07766); assay: flow cytometry, 10 nM antibody on Jurkat cells; no-antibody background 2075.61
# [2] = biological target: hK2 on target cells (VCaP, LNCaP/hK2 and other hK2 positive tumor cells) (human, UniProt P20151 19-261); assay: cell-based or functional assay
# [3] = biological target: T1, kallikrein related peptidase 2 (hK2), soluble (human, UniProt P20151 19-261, biotin label in the CAR staining assays (site not stated)); assay: SPR; bispecific antibody captured on anti-Fc sensor chip, soluble hK2 injected; 1:1 Langmuir fit
# T1 construct: also called KLK2; human KLK2 protein
# T1 sequence (P20151 19-261): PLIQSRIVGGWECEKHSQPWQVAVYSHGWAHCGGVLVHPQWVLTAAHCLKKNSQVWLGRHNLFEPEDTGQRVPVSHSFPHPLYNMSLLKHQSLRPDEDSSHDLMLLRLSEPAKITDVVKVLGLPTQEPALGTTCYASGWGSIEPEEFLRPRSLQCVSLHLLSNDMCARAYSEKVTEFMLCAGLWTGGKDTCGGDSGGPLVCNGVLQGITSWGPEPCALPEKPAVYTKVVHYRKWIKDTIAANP
# Sequence of hK2 on target cells (VCaP, LNCaP/hK2 and other hK2 positive tumor cells) (P20151 19-261): as above
# Sequence of human CD3 on cells (Jurkat cells, primary human T cells) (human) (P07766 23-207 limits assumed): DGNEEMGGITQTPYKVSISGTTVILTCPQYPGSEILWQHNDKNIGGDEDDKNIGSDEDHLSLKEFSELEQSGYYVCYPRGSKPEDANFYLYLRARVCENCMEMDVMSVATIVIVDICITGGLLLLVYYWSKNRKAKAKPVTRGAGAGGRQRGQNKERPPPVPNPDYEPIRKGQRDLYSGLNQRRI
Kd [3] [nM],Molecule,"tumor cell growth inhibition (TGI) of VCaP cells, IncuCyte killing assay, 96 hours, E:T 1:1 or 0.5:1 [2] [%]",also measured
2,KL2B30 Fab arm of an hK2/CD3 bispecific antibody (Table 39) (bispecific antibody) chain 1: QVQLQESGPGLVKPSETLSLTCTVSGGSISSYYWSWIRQPPGKGLEWIGYIYYSGSTNYNPSLKSRVTISVDTSKNQFSLKLSSVTAADTAVYYCAGTTIFGVVTPNFYYGMDVWGQGTTVTVSSASTKGPSVFPLAPSSKSTSGGTAALGCLVKDYFPEPVTVSWNSGALTSGVHTFPAVLQSSGLYSLSSVVTVPSSSLGTQTYICNVNHKPSNTKVDKKVEPKSCDKTHTCPPCPAPEAAGGPSVFLFPPKPKDTLMISRTPEVTCVVVSVSHEDPEVKFNWYVDGVEVHNAKTKPREEQYNSTYRVVSVLTVLHQDWLNGKEYKCKVSNKALPAPIEKTISKAKGQPREPQVYVLPPSREEMTKNQVSLLCLVKGFYPSDIAVEWESNGQPENNYLTWPPVLDSDGSFFLYSKLTVDKSRWQQGNVFSCSVMHEALHNHYTQKSLSLSPG chain 2: DIQMTQSPSFLSASVGDRVTITCRASQGISSYLAWYQQKPGKAPKFLIYAASTLQSGVPSRFSGSGSGTEFTLTISSLQPEDFATYYCQQLNSYPLTFGGGTKVEIKRTVAAPSVFIFPPSDEQLKSGTASVVCLLNNFYPREAKVQWKVDNALQSGNSQESVTEQDSKDSTYSLSSTLTLSKADYEKHKVYACEVTHQGLSSPVTKSFNRGEC chain 3: DIQMTQSPSSLSASVGDRVTITCRARQSIGTAIHWYQQKPGKAPKLLIKYASESISGVPSRFSGSGSGTDFTLTISSLQPEDFATYYCQQSGSWPYTFGQGTKLEIKGGSEGKSSGSGSESKSTGGSEVQLVESGGGLVKPGGSLRLSCAASGFTFSRYNMNWVRQAPGKGLEWVSSISTSSNYIYYADSVKGRFTFSRDNAKNSLDLQMSGLRAEDTAIYYCTRGWGPFDYWGQGTLVTVSSEPKSSDKTHTCPPCPAPEAAGGPSVFLFPPKPKDTLMISRTPEVTCVVVSVSHEDPEVKFNWYVDGVEVHNAKTKPREEQYNSTYRVVSVLTVLHQDWLNGKEYKCKVSNKALPAPIEKTISKAKGQPREPQVYVYPPSREEMTKNQVSLTCLVKGFYPSDIAVEWESNGQPENNYKTTPPVLDSDGSFALVSKLTVDKSRWQQGNVFSCSVMHEALHNHYTQKSLSLSPG,–,–
0.1,KL2B53 Fab arm of an hK2/CD3 bispecific antibody (Table 39) (bispecific antibody) chain 1: EVQLVESGGGVVQPGRSLRLSCVASGFTFSSYDIHWVRQAPGKGLEWVAIISYDGSKKDYTDSVKGRFTISRDNSKNTLYLQMDSLRVEDSAVYSCARESGWSHYYYYGMDVWGQGTMVTVSSASTKGPSVFPLAPSSKSTSGGTAALGCLVKDYFPEPVTVSWNSGALTSGVHTFPAVLQSSGLYSLSSVVTVPSSSLGTQTYICNVNHKPSNTKVDKKVEPKSCDKTHTCPPCPAPEAAGGPSVFLFPPKPKDTLMISRTPEVTCVVVSVSHEDPEVKFNWYVDGVEVHNAKTKPREEQYNSTYRVVSVLTVLHQDWLNGKEYKCKVSNKALPAPIEKTISKAKGQPREPQVYVLPPSREEMTKNQVSLLCLVKGFYPSDIAVEWESNGQPENNYLTWPPVLDSDGSFFLYSKLTVDKSRWQQGNVFSCSVMHEALHNHYTQKSLSLSPG chain 2: DIVMTQSPSSLSASVGDRVTITCRASQDISNYLAWYQQKPGKVPKFLIYAASTLHSGVPSRFSGSGSGTDFTLTISSLQPEDVATYYCQKYNSAPYTFGQGTRLEIKRTVAAPSVFIFPPSDEQLKSGTASVVCLLNNFYPREAKVQWKVDNALQSGNSQESVTEQDSKDSTYSLSSTLTLSKADYEKHKVYACEVTHQGLSSPVTKSFNRGEC chain 3: DIQMTQSPSSLSASVGDRVTITCRARQSIGTAIHWYQQKPGKAPKLLIKYASESISGVPSRFSGSGSGTDFTLTISSLQPEDFATYYCQQSGSWPYTFGQGTKLEIKGGSEGKSSGSGSESKSTGGSEVQLVESGGGLVKPGGSLRLSCAASGFTFSRYNMNWVRQAPGKGLEWVSSISTSSNYIYYADSVKGRFTFSRDNAKNSLDLQMSGLRAEDTAIYYCTRGWGPFDYWGQGTLVTVSSEPKSSDKTHTCPPCPAPEAAGGPSVFLFPPKPKDTLMISRTPEVTCVVVSVSHEDPEVKFNWYVDGVEVHNAKTKPREEQYNSTYRVVSVLTVLHQDWLNGKEYKCKVSNKALPAPIEKTISKAKGQPREPQVYVYPPSREEMTKNQVSLTCLVKGFYPSDIAVEWESNGQPENNYKTTPPVLDSDGSFALVSKLTVDKSRWQQGNVFSCSVMHEALHNHYTQKSLSLSPG,–,–

# Continued, molecule first:
Molecule,Kd [3] [nM],"tumor cell growth inhibition (TGI) of VCaP cells, IncuCyte killing assay, 96 hours, E:T 1:1 or 0.5:1 [2] [%]",also measured
UCHT1 (antibody),–,–,MFI (mean fluorescence index) (arbitrary units) [1]: 89200
CAR19 (KL2B359_HL) (other) QVQLQESGPGLVKPSQTLSLTCTVSGNSITSDYAWNWIRQFPGKRLEWIGYISYSGSTTYNPSLKSRVTISRDTSKNQFSLKLSSVTAADTAVYYCATGYYYGSGFWGQGTLVTVSSGGSEGKSSGSGSESKSTGGSEIVLTQSPATLSLSPGERATLSCRASESVEYFGTSLMHWYQQKPGQPPRLLIYAASNVESGIPARFSGSGSGTDFTLTISSVEPEDFAVYFCQQTRKVPYTFGGGTKVEIKTSTPAPRPPTPAPTIASQPLSLRPEACRPAAGGAVHTRGLDFACDIYIWAPLAGTCGVLLLSLVITLYCKRGRKKLLYIFKQPFMRPVQTTQEEDGCSCRFPEEEEGGCELRVKFSRSADAPAYKQGQNQLYNELNLGRREEYDVLDKRRGRDPEMGGKPRRKNPQEGLYNELQKDKMAEAYSEIGMKGERRRGKGHDGLYQGLSTATKDTYDALHMQALPPR,–,~100,–
CAR20 (KL2B359_LH) (other) EIVLTQSPATLSLSPGERATLSCRASESVEYFGTSLMHWYQQKPGQPPRLLIYAASNVESGIPARFSGSGSGTDFTLTISSVEPEDFAVYFCQQTRKVPYTFGGGTKVEIKGGSEGKSSGSGSESKSTGGSQVQLQESGPGLVKPSQTLSLTCTVSGNSITSDYAWNWIRQFPGKRLEWIGYISYSGSTTYNPSLKSRVTISRDTSKNQFSLKLSSVTAADTAVYYCATGYYYGSGFWGQGTLVTVSSTSTPAPRPPTPAPTIASQPLSLRPEACRPAAGGAVHTRGLDFACDIYIWAPLAGTCGVLLLSLVITLYCKRGRKKLLYIFKQPFMRPVQTTQEEDGCSCRFPEEEEGGCELRVKFSRSADAPAYKQGQNQLYNELNLGRREEYDVLDKRRGRDPEMGGKPRRKNPQEGLYNELQKDKMAEAYSEIGMKGERRRGKGHDGLYQGLSTATKDTYDALHMQALPPR,–,~100,–
CAR17 (KL2B413_HL) (other) EVQLVESGGGLVQPGGSLRLSCAASGFTFSSYWMTWVRQAPGKGLEWVANIKQDGSERYYVDSVKGRFTISRDNAKNSLYLQMNSLRAEDTAVYYCARDQNYDILTGHYGMDVWGQGTTVTVSSGGSEGKSSGSGSESKSTGGSEIVLTQSPSFLSASVGDRVTITCRASQGISSYLSWYQQKPGKAPKLLIYATSTLQSGVPSRFSGSGSGTEFTLTISSLQPEDFATYYCQQLNSYPRTFGQGTKVEIKTSTPAPRPPTPAPTIASQPLSLRPEACRPAAGGAVHTRGLDFACDIYIWAPLAGTCGVLLLSLVITLYCKRGRKKLLYIFKQPFMRPVQTTQEEDGCSCRFPEEEEGGCELRVKFSRSADAPAYKQGQNQLYNELNLGRREEYDVLDKRRGRDPEMGGKPRRKNPQEGLYNELQKDKMAEAYSEIGMKGERRRGKGHDGLYQGLSTATKDTYDALHMQALPPR,–,~100,–
